Source: paper PMC5472179 (Nature Communications, 2017)
Ends that are not written are not given here. * marks the point of attachment. FITC = O=C1OC2(c3ccc(O)cc3Oc3cc(O)ccc32)c2ccc(NC(=S)*)cc21

Target: T1, eVP30 110-272 (Ebola virus (Zaire), UniProt Q05323 110-272)
T1 sequence: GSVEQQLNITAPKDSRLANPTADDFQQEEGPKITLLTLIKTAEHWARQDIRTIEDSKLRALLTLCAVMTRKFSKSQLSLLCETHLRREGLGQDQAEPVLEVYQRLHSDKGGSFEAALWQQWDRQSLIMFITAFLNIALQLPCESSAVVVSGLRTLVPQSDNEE
Assay: fluorescence polarisation
Conditions: both partners purified

Does {FITC}-RTPTVAPPAPVYRDHS [FITC-labeled eNP600-615 peptide] bind?
Result: binds

Does RTPTVAPPAPVYRDHS [unlabeled eNP600-615 peptide] bind?
Result: binds
